Laboratory results reported in patent US20240192215A1 (E AND S HEALTHCARE, published 2024).

T1: Peptide_057 (human)
T1 construct: 15-mer of hTrx1 on microarray
T1 peptide: PFFHSLSEKYSNVIF

T2: Peptide_055 (human)
T2 construct: 15-mer of hTrx1 on microarray
T2 peptide: IKPFFHSLSEKYSNV

T3: Peptide_053 (human)
T3 construct: 15-mer of hTrx1 on microarray
T3 peptide: KMIKPFFHSLSEKYS

T4: Peptide_048 (human)
T4 construct: 15-mer of hTrx1 on microarray
T4 peptide: WCGPCKMIKPFFHSL

T5: Peptide_049 (human)
T5 construct: 15-mer of hTrx1 on microarray
T5 peptide: CGPCKMIKPFFHSLS

T6: Peptide_046 (human)
T6 construct: 15-mer of hTrx1 on microarray
T6 peptide: ATWCGPCKMIKPFFH

T7: Peptide_054 (human)
T7 construct: 15-mer of hTrx1 on microarray
T7 peptide: MIKPFFHSLSEKYSN

T8: Peptide_056 (human)
T8 construct: 15-mer of hTrx1 on microarray
T8 peptide: KPFFHSLSEKYSNVI

T9: Peptide_052 (human)
T9 construct: 15-mer of hTrx1 on microarray
T9 peptide: CKMIKPFFHSLSEKY

T10: Peptide_050 (human)
T10 construct: 15-mer of hTrx1 on microarray
T10 peptide: GPCKMIKPFFHSLSE

T11: Peptide_047 (human)
T11 construct: 15-mer of hTrx1 on microarray
T11 peptide: TWCGPCKMIKPFFHS

T12: Peptide_045 (human)
T12 construct: 15-mer of hTrx1 on microarray
T12 peptide: SATWCGPCKMIKPFF

T13: Peptide_093 (human)
T13 construct: 15-mer of hTrx1 on microarray
T13 peptide: TFQFFKKGQKVGEFS

T14: Peptide_012 (human)
T14 construct: 15-mer on microarray; not native form, includes recombinant insert region
T14 peptide: HHHHHHHVKQIESKT

T15: Peptide_018 (human)
T15 construct: 15-mer on microarray; not native form, includes recombinant insert region; also called HVKQIESKTAFQEAL
T15 peptide: HVKQIESKTAFQEAL

T16: Peptide_084 (human)
T16 construct: 15-mer of hTrx1 on microarray
T16 peptide: SECEVKCMPTFQFFK

T17: Peptide_014 (human)
T17 construct: 15-mer on microarray; not native form, includes recombinant insert region
T17 peptide: HHHHHVKQIESKTAF

T18: Peptide_022 (human)
T18 construct: 15-mer of hTrx1 on microarray
T18 peptide: IESKTAFQEALDAAG

T19: Peptide_051 (human)
T19 construct: 15-mer of hTrx1 on microarray
T19 peptide: PCKMIKPFFHSLSEK

T20: human thioredoxin-1 (Trx1) (human, UniProt P10599 1-105)
T20 construct: also called hTrx1; hTRX1
T20 sequence (looked up): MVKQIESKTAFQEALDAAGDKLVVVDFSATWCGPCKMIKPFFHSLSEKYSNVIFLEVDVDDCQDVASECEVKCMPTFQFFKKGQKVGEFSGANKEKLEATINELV

B1: monoclonal antibody B264 (antibody, mouse IgG1, kappa, V domains shown)
VH: QVQLQQSGAELARPGASVKMSCKASGYTFTSYTMHWVKQRPGQGLEWIGYINPTSDYTNYNQKFKDKATLTADKSSSTAYMQLSSLTSEDSAVYFCASEGGFLYYFDYWGQGTTLTVSS
VL: DVLMTQTPLSLPVSLGDQASISCRSSQSIVHSNGNTYLEWYLQKPGQSPKLLIYKVSNRFSGVPDRFSGSGSGTDFTLKISRVEAEDLGVYYCFQGSHVPYTFGGGTKLEIKR
notes: also called AB264; B264 (Trx1-mIgG1)
B2: monoclonal antibody B266-1 (antibody, human IgG1)
light: QIVLTQSPAIMSASPGEKVTMTCSASSRISYMYWYQQKPGTSPKRWIYDTSKLASGVPARFSGSGSGTSYSLTISTMEAEDAATYYCHQRSSYPTFGAGTKLELKSVAAPSVFIFPPSDEQLKSGTASVVCLLNNFYPREAKVQWKVDNALQSGNSQESVTEQDSKDSTYSLSSTLTLSKADYEKHKVYACEVTHQGLSSPVTKSFNRGEC
heavy: not shown
notes: B266 with the Fc part changed to human IgG1; also called B266-1 (Trx1-hIgG1); B266-1 (hTrx1-hIgG1)

Assays:
Peptide_057 [1] = target: T1, Peptide_057; assay: peptide microarray, 0.0016 ug/mL
Procedure: (§1) 5, 1, 0.2, 0.04, 0.008 and 0.0016 μg/mL serial dilutions were incubated on a single multi-well microarray slide at 30° C. for 1 hour. The slide includes 21 individual mini-arrays (one mini-array per sample dilution).
(§2) DyLight 650 was used as a label. False-positive binding to a peptide was evaluated by performing one additional control incubation in which only a secondary antibody was applied on the same microarray slide. Before performing each step, the microarrays were washed with a washing buffer.

Peptide_055 [2] = target: T2, Peptide_055; assay: peptide microarray, 0.0016 ug/mL
Procedure: as §1, §2

Peptide_053 [3] = target: T3, Peptide_053; assay: peptide microarray, 0.0016 ug/mL
Procedure: as §1, §2

Peptide_048 [4] = target: T4, Peptide_048; assay: peptide microarray, 0.0016 ug/mL
Procedure: as §1, §2

Peptide_049 [5] = target: T5, Peptide_049; assay: peptide microarray, 0.0016 ug/mL
Procedure: as §1, §2

Peptide_046 [6] = target: T6, Peptide_046; assay: peptide microarray, 0.0016 ug/mL
Procedure: as §1, §2

Peptide_054 [7] = target: T7, Peptide_054; assay: peptide microarray, 0.0016 ug/mL
Procedure: as §1, §2

Peptide_056 [8] = target: T8, Peptide_056; assay: peptide microarray, 0.0016 ug/mL
Procedure: as §1, §2

Peptide_052 [9] = target: T9, Peptide_052; assay: peptide microarray, 0.0016 ug/mL
Procedure: as §1, §2

Peptide_050 = target: T10, Peptide_050; assay: peptide microarray, 0.0016 ug/mL
Procedure: as §1, §2

Peptide_047 = target: T11, Peptide_047; assay: peptide microarray, 0.0016 ug/mL
Procedure: as §1, §2

Peptide_045 = target: T12, Peptide_045; assay: peptide microarray, 0.04 ug/mL
Procedure: as §1, §2

Peptide_093 = target: T13, Peptide_093; assay: peptide microarray, 0.04 ug/mL
Procedure: as §1, §2

Peptide_012 = target: T14, Peptide_012; assay: peptide microarray, 0.04 ug/mL
Procedure: as §1, §2

Peptide_018 = target: T15, Peptide_018; assay: peptide microarray, 0.04 ug/mL
Procedure: as §1, §2

Peptide_084 = target: T16, Peptide_084; assay: peptide microarray, 0.04 ug/mL
Procedure: as §1, §2

Peptide_014 = target: T17, Peptide_014; assay: peptide microarray, 0.04 ug/mL
Procedure: as §1, §2

Peptide_022 = target: T18, Peptide_022; assay: peptide microarray, 0.04 ug/mL
Procedure: as §1, §2

Peptide_051 = target: T19, Peptide_051; assay: peptide microarray, 0.04 ug/mL
Procedure: as §1, §2

[10] = target: T20, human thioredoxin-1 (Trx1); assay: ELISA on 200 ng coated hTrx1
Procedure: A reaction solution was removed, followed by washing five times with 200 μL of 1×PBST. […] A reaction solution was removed, and washed five times with 200 μL of 1×PBST. 100 μL of a color reagent was dispensed into each well, and after a 10-minute reaction, 50 μL of 2.5M H₂SO₄ was dispensed into each well. After color development, the extent of the color development was assessed using an ELISA reader.

[11] = target: T20, human thioredoxin-1 (Trx1); assay: ELISA on 100 ng coated Trx1, antibody titration, Prism fit
Procedure: 100 μl of a coating buffer and 100 ng of Trx1 were mixed and dispensed to each well, and then reacted at 4° C. for 16 hours or more. After the reaction solution was removed, 200 μl of PBSA was dispensed to each well and reacted at 37° C. for 120 minutes. […] After the reaction solution was removed, washing was performed by dispensing 200 μl of a washing buffer to each well. The above-described process was performed two times.
After the reaction solution was removed, washing was performed by dispensing 200 μl of a washing buffer to each well. The above-described process was performed three times.

Peptide_057 [12] = target: T1, Peptide_057; assay: peptide microarray, head 0.08 ug (text 0.008 ug/mL)
Procedure: as §1, §2

Peptide_055 [13] = target: T2, Peptide_055; assay: as above
Procedure: as §1, §2

Peptide_053 [14] = target: T3, Peptide_053; assay: as above
Procedure: as §1, §2

Peptide_048 [15] = target: T4, Peptide_048; assay: as above
Procedure: as §1, §2

Peptide_049 [16] = target: T5, Peptide_049; assay: as above
Procedure: as §1, §2

Peptide_046 [17] = target: T6, Peptide_046; assay: as above
Procedure: as §1, §2

Peptide_054 [18] = target: T7, Peptide_054; assay: as above
Procedure: as §1, §2

Peptide_056 [19] = target: T8, Peptide_056; assay: as above
Procedure: as §1, §2

Peptide_052 [20] = target: T9, Peptide_052; assay: as above
Procedure: as §1, §2

Row | Binder | signal (blank-control = 1) (Peptide_057 [1]) | signal (blank-control = 1) (Peptide_055 [2]) | signal (blank-control = 1) (Peptide_053 [3]) | signal (blank-control = 1) (Peptide_048 [4]) | signal (blank-control = 1) (Peptide_049 [5]) | signal (blank-control = 1) (Peptide_046 [6]) | signal (blank-control = 1) (Peptide_054 [7]) | signal (blank-control = 1) (Peptide_056 [8]) | signal (blank-control = 1) (Peptide_052 [9]) | signal (blank-control = 1) (Peptide_050) | signal (blank-control = 1) (Peptide_047) | Kd [10] | Kd [11] | signal (blank-control = 1) (Peptide_057 [12]) | signal (blank-control = 1) (Peptide_055 [13]) | signal (blank-control = 1) (Peptide_053 [14]) | signal (blank-control = 1) (Peptide_048 [15]) | signal (blank-control = 1) (Peptide_049 [16]) | signal (blank-control = 1) (Peptide_046 [17]) | signal (blank-control = 1) (Peptide_054 [18]) | other results
1 | B1 | 1.73 | 0.81 | 1.41 | 7.46 | 1.18 | 1.69 | 0.55 | 0.99 | 1.15 | 0.51 | 1.15 | 0.17 nM | 0.13 nM | 2.27 | 0.99 | 1.76 | 7.68 | 1.43 | 2.11 | 0.63 | signal (blank-control = 1) (Peptide_045): 4.59; signal (blank-control = 1) (Peptide_093): 2.46; signal (blank-control = 1) (Peptide_012): 1.15; signal (blank-control = 1) (Peptide_018): 1.64; signal (blank-control = 1) (Peptide_084): 1.83; signal (blank-control = 1) (Peptide_014): 1.49; signal (blank-control = 1) (Peptide_022): 2.89; signal (blank-control = 1) (Peptide_051): 1.41; reaction value (OD 490) relative to B266-1 [10]: ~50%; signal (blank-control = 1) (Peptide_056 [19]): 1.11; signal (blank-control = 1) (Peptide_052 [20]): 1.23
2 | B2 | 1.93 | 1.05 | 1.42 | 7.61 | 1.37 | 1.79 | 0.73 | 1.18 | 1.37 | 0.62 | 1.18 | 0.21 nM | 0.011 nM | 2.09 | 0.85 | 1.44 | 7.25 | 1.31 | 1.64 | 0.71 | signal (blank-control = 1) (Peptide_056 [19]): 1.07; signal (blank-control = 1) (Peptide_052 [20]): 1.12
